Results published in the DeepSol protein solubility set.

test: soluble on expression in E. coli; label from the status in PepcDB or PDB records

Sequence | soluble on expression in E. coli
MTTRVLYVRHAHAHGRQTWGGDDNKRPLDKKGRRQAEMLVPMLLPFKPTAIYSAVPDRCQATALPLADELGLDVSVNRLFGDDAWETDPEACKKRFTDVVAQGGVPMIVGQGDIIPEMIKWFSENGTLPIDEKIKAKKGSVWVLSFHDGVFTGADYLEHHHHHH | soluble
MSEISDAEKVRIASDFIKHAPPGEFNEVFNSVRMLLENDDLLKNKCVNAIAQYNVGQFVPVKLDGVAKQTLITPYNDLGNGRFYDEVSKKSFKYDHVRKEAADLQPHPAESGITEQWRQALQTQLDIYIDDHYAKSGTGVVFARNGVFTICIESHQFQPKNFCNGRWRSEWNVPVGDGKSGSQEMKGKILSQVHYYEDGNVQLFSEKEPVLKVNVSADFDKTAKEIIHAISEEETIYQNAVQENYANMSDTTFKALRRQLPVTRAKMDWNKAQTYRIGQEMK | soluble
MPRTHGYAPIGKRCHGKCNWHARGRINVIGALIGKCLLTVGLFKNNIDADTFLGWTIHDLLPKLPPASIVVMDNATFRKRQDIQNVITRGGHTLEYLPAYSPDLNPIEHKWAQTKAVRKQQNQTVEQLFKIESFYVTLEHHHHHH | soluble
MGSDKIHHHHHHMNEGKILSGLLAPHPPHLVYGENPPQNEPRSQGGWEPLRWAYDQVRENIEHLKPDVLIVHSPHWITQVGHHFLGVPRLTGRSVDPIFPNLFRYDFGMNVDVELAEACCEEATKLGLVSKMMRNPSFRVDYGTITTLHMVRPQWDIPVVGISANNTPYYLNTKEGLGEMDLLGRATREAIRKTGRRAVLLASNTLSHWHFHEEPALPEDMSKEHPERYDGYLWDVRMIELMRKGHMKEVFELLPQFIEEAFAEIKSGAFTWMHAAMGYPELAGKLHGYGTVIGTGNAVIEWNLEDVGLSRLESVA | not soluble
SCRRAFDLYFVLDKSGSVANNWIEIYNFVQQLAERFVSPEMRLSFIVFSSQATIILPLTGDRGKISKGLEDLKRVSPVGETYIHEGLKLANEQIQKAGGLKTSSIIIALTDGKLDGLVPSYAEKEAKISRSLGASVYCVGVLDFEQAQLERIADSKEQVFPVKGGFQALKGIINSILAQSC | soluble
MSLNSSFFKMMEKRSYNRFNQEQKAAITYDMKKHLRIIAGAGSGKTQTICAKAVYLMTQKQVDEERILMITFTRNAANELKKRVDNFSQRKTAVHIGTFHSIFFRIYNEICRKFPEVAMQGIQGDFSKDTAQKVNAVLQQLIRKYNLYIFDQYGEKTIASRLDYWQNMNLSVEEMVQLVKEKYDSIDKNARQPISERLYGLLTELQEQKRSQQLLEFNDVLQNLKSALENEEIQHYIGQKYDYLFIDEFQDTNPLQWEIVKRMTKENRIKLIVVGDDDQSIYGFRGSEPAYIKNFEKEYPTKTLFLLTNYRSRAAIVQGANRLISYNKNDRIPKAMIPAQKEAGVMEAYLFSDTKAESQWLIKQIQTFIQKNGKYKESIILYRSASQTQQLVQSLLKTNIPFVLEADSPYEGIFGIKSFQHFYQKIVHWQTALNLQKKNQAYQQLLRQLMADCYLKKSECDQYFSPKYQNIAVADYILSISPNLKSKSAEIREFEEALRKTDQHQEIYSLVQSYLHLPRIAKEIDQSDQEWIREEVKQHATFRRLQALSQETQATAKELKTRLIAYRQGKLDALCIQSIHKSKGLSYRNVFLIGCNEGSLPYNGATEKKVIDFNEIKAEPVTTIEEERRLFYVAMTRARNRLYLCVPQMKNSRKLKVSRFIKETGSRVKKGEGHHHHHH | soluble
MGSDKIHHHHHHMNTAAIYRQYQTYVRSDKSGWALDGCSDSALIAQAKQPGLHLKMCINRFDSGITLSRMRGGGTGAFPTEIHNFSHNCALFVMVSGQNRLQMGGREYRPSAGEIWLVRGELADVSETLLPDSGGMCALHLDFSLEKLRRWHDEGLLDERLFSPQTIGRFALQRLAQNAGTLTAAACPLLQRPFESDGFGLLADEADALELSARLLRFTFRRHDNGYRRRRIDEAADILNSEFARPLTIAEIARRVGLNECYLKRYFKAQTGETVAGRLRRLRLEHALALIESGSTIQAAMHFCGYRHAGRFNEAFRRHYGFLPSDVKKC | not soluble
MADVEDGEETCALASHSGSSGSKSGGDKMFSLKKWNAVAMWSWDVECDTCAICRVQVMDACLRCQAENKQEDCVVVWGECNHSFHNCCMSLWVKQNNRCPLCQQDWVVQRIGKLEHHHHHH | soluble
GSHMEKRTPHTRLSQVKKLVNAGQVRTTRSALLNADELGLDFDGMCNVIIGLSESDFYKSMTTYSDHTIWQDVYRPRLVTGQVYLKITVIHDVLIVSFKEK | soluble
ESPEIQVEEQSFNFGLIPEEKGSVGHSFKFRNSGTAPLLITRVMADCGCTTPTWPEEAIAPGEEAEIRVLFDPVGRSGAFVKRIRVFSNAQSSPLE | not soluble
MSLTNHHPSSTGPQHPYRAGWIHFTNVAPILDSLELPPGVTAITGVPTQMNAALLSGEVDIANVSAVEFIRHADTLAALPDFSVAVLGPVYSVNLFHTCPLPELRRVALTSQSAMSVALLEVLLRQKGLSPVLERAEGTAESLLAAGYDGVLRIGDDALREWYGVVGPLTPERTMTSLPHTGRGITVTDLAQEWFDLTGHPFTFAVWAYRKDNPPPAALLQAMREARRRGIGHLAEVSQRHAEKLGLPERVVQHYLWNFRYHLEAPDRLGLREFADLAVPGHAELTFGAREEAEGHHHHHH | soluble
GPGSMERVRIRYVLTGACPPTYSGRVVHDFVALKQPNGCDTTIEMVKERFRSNWPADVKELAESISESGIRVLKAGRVLNDHDSLMRHLTASERKACLVSGDTKVGDTNDEMQKPSVLMHMVIQGNRAPLENSRKEKHKVSSTPEGGNSNEGHEMKKDSCCCVM | soluble
MWKTYTRYQAVYKKAQWPLTLYFDGECPLCAREIKVLRARAAADRLLFVDISDDAFDASLLGLTLPQMESSLHARFDDGTWVTGLDATLWSWRAAGLGKWVAPLSWPILRPLFTVLYRLFCRFRPHLAWLPHPDGGRRCSKGSCTVAESVVMKSEASAEKKIS | not soluble
MGSDKIHHHHHHMKHAFLIIAHNEYPVLEVLLSMLDDERNDIYLHIDKRATELFQQIKKVKMQKAGFYLIENPIKVYWGDISQVQVEYLLFETALSHGPYAYYHLLSGTDLPIKSQDYIHAFFQQNAGKEFVGFWQDAAHQRDLERKVFRYYFFTKRLKDKEHLLHGITALIRNLILAVQKISHYRRKQTFEFKKGGNWISITENAVKYLLQYKEIVLNRMKYTLCADEIFIQTILWNSPFRERMHCTNNANTGSMREIDWEHGSPYIWQDHDYQTLINSNKIFARKFNSNQMGVVYKIQKLYLKQVPK | not soluble
MRDLLNDLSEGLSHPDPILRAQIQMQKPLPKRFYKDVTVADVEEGGFTILLDGKPLRTPAKKPLVAPSRALADLLRDEWDAQKEVVNPVVMPVSRHVNTAIDGIASDTQAVFEDILRFSSSDLLCYRAGDPEALVARQTDYWDPVLDWATNVLGARFILVEGVMHRDQPREAIAAFAVTLKKYDTPIALAALHTMTSLTGSAILALALAEGELTLEEAWALAHLDEDWTAEQWGEDEEALERRAVRLIDMRAALNVLESLKSAS | soluble
GMTKIRKIAVFIEETRIEAGREISPPTRKAVAVAVIENPFAGRYVEDLTELMDTGAELGALLGERCVQALGIRPEQAESYGKSAMVGENGELEHAAAILHPKLGAPLRKAVEKGAALVPSSKKMGSPGQVLDVPLGHKDAAYVRSHFDGIEVRLNDAPRANEIMVAVAVTDSGRPLPRVGGLTHDAAEGKDGLR | soluble
MSSFLRPAVSGQDPFTTGNYRAISSHLAITPPVSVVIPAMNEAENLPYVFKSLPDWIHEVVLVDGNSTDGTVEVARELWPDVKVVEQRGKGKGDALITGFEACTGDIIVMVDADGSADGQEIVSYVSALVSGADFAKGSRFANGGGTSDMTPIRKLGNRVLCAAVNAKFGARYTDLCYGYNAFWRHCLDQIDLDCTGFEVETLMNIRVVKAGLKVQEIPSHEYLRIHGASNLRAVRDGLRVLKVILKERSNRRALRSRPHAMQLNSGQGEVSLEHHHHHH | soluble
HMAEIYLAGGCFWGLEEYFSRISGVLETSVGYANGQVETTNYQLLKETDHAETVQVIYDEKEVSLREILLYYFRVIDPLSINQQGNDRGRQYRTGIYYQDEADLPAIYTVVQEQERMLGRKIAVEVEQLRHYILAEDYHQDYLRKNPSGYCHIDVTDADKPLIDAANYEKPSQEVLKASLSEESYRVTQEAATEAPFTNAYDQTFEEGIYVDITTGEPLFFAKDKFASGCGWPSFSRPLSKELIHYYKDLSHGMERIEVRSRSGSAHLGHVFTDGPRELGGLRYCINSASLRFVAKDEMEKAGYGYLLPYLNK | soluble
MSKSESPKEPEQLRKLFIGGLSFETTDESLRSHFEQWGTLTDCVVMRDPNTKRSRGFGFVTYATVEEVDAAMNARPHKVDGRVVEPKRAVSREDSQRPGAHLTVKKIFVGGIKEDTEEHHLRDYFEQYGKIEVIEIMTDRGSGKKRGFAFVTFDDHDSVDKIVIQKYHTVNGHNCEVRKALSKQEMASASSSQRGR | soluble
MASKMDTETHYSDVWVVIPAFNEAAVIGKVVTDVRSVFDHVVCVDDGSTDGTGDIARRSGAHLVRHPINLGQGAAIQTGIEYARKQPGAQVFATFDGDGQHRVKDVAAMVDRLGAGDVDVVIGTRFGRPVGKASASRPPLMKRIVLQTGARLSRRGRRLGLTDTNNGLRVFNKTVADGLNITMSGMSHATEFIMLIAENHWRVAEEPVEVLYTEYSKSKGQPLLNGVNIIFDGFLRGRMPR | not soluble
MIALHFGAGNIGRGFIGALLHHSGYDVVFADVNETMVSLLNEKKEYTVELAEEGRSSEIIGPVSAINSGSQTEELYRLMNEAALITTAVGPNVLKLIAPSIAEGLRRRNTANTLNIIACENMIGGSSFLKKEIYSHLTEAEQKSVSETLGFPNSAVDRIVPIQHHEDPLKVSVEPFFEWVIDESGFKGKTPVINGALFVDDLTPYIERKLFTVNTGHAVTAYVGYQRGLKTVKEAIDHPEIRRVVHSALLETGDYLVKSYGFKQTEHEQYIKNQRSLLKSFHFGRCDPRSEVTSQKTGRKCRLVGPAKKIKEPNALAEGIAAALRFDFTGDPEAVELQALIEEKDTAAYFK | not soluble
MAHHHHHHMGTLEAQTQGPGSMDEVLLVKKLVEDAIVPTRGSKCAAGIDLYSNTNFIIQPHERFLVSTGVSVQIPHQCYGRIAPRSSLALKYGIDVGAGVIDEDYRGEIKVILFNHSNEIFNGRKGDRIAQLIIERISYCRISEVKELNTTDRGTNGFGSTGK | soluble
MNYHQYYPIDVVNGPGTRCTLFVSGCVHQCKGCYNQSTWSLSSGHRYTQEMEDKIIADLKDTRIKRRGLSLSGGDPMHPANLSAVLQLVQRVKTECPDKDIWLWTGYTLAELDDSQQALLPYIDVLVDGKFIQEQADPGLEWRGSANQVIHRFTLLEHHHHHH | not soluble
